Substrate: O=[N+]([O-])c1ccc(OP(=O)(O)O)cc1
Assay: purified protein
Conditions: pH 8.0; 37.0 °C

B1: Rv1364c (Mycobacterium tuberculosis H37Rv) (protein)
chain: MAAEMDWDKTVGAAEDVRRIFEHIPAILVGLEGPDHRFVAVNAAYRGFSPLLDTVGQPAREVYPELEGQQIYEMLDRVYQTGEPQSGSEWRLQTDYDGSGVEERYFDFVVTPRRRADGSIEGVQLIVDDVTSRVRARQAAEARVEELSERYRNVRDSATVMQQALLAASVPVVPGADIAAEYLVAAEDTAAGGDWFDALALGDRLVLVVGDVVGHGVEAAAVMSQLRTALRMQISAGYTVVEALEAVDRFHKQVPGSKSATMCVGSLDFTSGEFQYCTAGHPPPLLVTADASARYVEPTGAGPLGSGTGFPVRSEVLNIGDAILFYTDGLIERPGRPLEASTAEFADLAASIASGSGGFVLDAPARPIDRLCSDTLELLLRSTGYNDDVTLLAMQRRAPTPPLHITLDATINAARTVRAQLREWLAEIGADHSDIADIVHAISEFVENAVEHGYATDVSKGIVVAAALAGDGNVRASVIDRGQWKDHRDGARGRGRGLAMAEALVSEARIMHGAGGTTATLTHRLSRPARFVTDTMVRRAAFQQTIDSEFVSLVESGRIVVRGDVDSTTAATLDRQIAVESRSGIAPVTIDLSAVTHLGSAGVGALAAACDRARKQGTECVLVAPPGSPAHHVLSLVQLPVVGADTEDIFAQE
B1 was tested, and the Km was 3.61 ± 0.58 mM and the Vmax was 0.09 µmol/min/mg.
